Read-outs that look alike come from different tables or passages of the source.

Results on two molecules are retold here after US20140206628A1 (University of Washington, published 2014).

In test [1] the target is T1, A/South Carolina/1/1918 (H1N1) hemagglutinin ectodomain, biotinylated (Influenza A virus A/South …).
Test [2] addresses T1, A/South Carolina/1/1918 (H1N1) …. This is another data set of the same source.
For test [3] the target is unchanged. This is another data set of the same source.
The target is the same in test [4]. The source holds these as a separate data set.

B1: HB80.1 (Met26Thr, Asn36Lys) (designed binder)
chain: MASTRGSGRPWDFSENLAFELALAFTNKDTPDRWAKVAQYVSGRTPEEVKKHYEILVEDIKYIESGKVPFPNYRTTGGNMKTDEKRFRNLKIRLE
Regarding B1, the Kd in test [1] and in test [2] was 7.5 nM in each case.

B2: HB36.1 (Asp47Ser) (designed binder)
chain: MSNAMDGQQLNRLLLEWIGAWDPFGLGKDAYDVEAEAVLQAVYETESAFDLAMRIMWIYAFAFNRPIPFPHAQKLARRLLELKQAASSPLPLE
With B2, in test [3], the “fold increase of binding affinity relative to HB36” value was roughly 40 fold. Moreover, the results for the Kd in test [4] and in test [1] were 2 to 5 nM and 5 nM, respectively.
